Assay results published in the NTF2 design screens of Basanta et al. (2020).

Assay: protease stability score; higher = more stable; yeast display proteolysis, trypsin and chymotrypsin;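 note: relative to predicted unfolded state with 0 unfolded-like and 1 meaning tenfold more protease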

Sequence: SDEEIAAKYMEDELQKSLKTGDEQKFRHLADPNVRSDINGVELIGWELIIKYWREIRSKVEDVRLKRVDVQGDKIHLHGLVDVEINVNGVRTREHLESHFVIVKIDGRWYVHSIEIR
- protease stability score: 0.659

Sequence: SDEEKDAKRAIEIYLRMVETGDEETSKELMDPNVRMHVNGQDVHGRERVAKLFHELSRRIDHHEVRLDRWDVQGDKLIIHTEIIWRVNGVEIRRRTLIIMRKFNGRWYIEELNIE
- protease stability score: 0.181

Sequence: SDEEKESKHMFKIYLDFLRTGNEEQYSEMADPNVRIEVNGVTIHGRELAVKFMKEVRDEMRIHDYRIRHLDVFNGRVHADTEENVEFNGVRFITRTKIHLHIVNGRIKSVREEID
- protease stability score: 0.903

Sequence: SDEEKFFEKLLRDILHLWLTGDEDTFHQLLDPNMRSDVDGVDLHGRETVAKFLKERLKHLGIDHVQLESETAIGDKFFINTTISINGVETKMHLHFRVVNGVVHSLEVKVR
- protease stability score: 1.26

Sequence: SDEEKFMHEMYELILKALHTGDEEFLEHFADPNTRLHINGRERHGRDEMKEFFKKFLDHWRIERFHVRSVEIFDGRVTSDTEIRGNIDGVRSEHRTDINIVIVNGRLKEINIHIE
- protease stability score: 0.537

Sequence: SDEEKHAEEYHRQLTRDIMTGDEHILHELVDPHVLERVDGKDNHGWEEIAHFWVRFKNMRMHIEIHEIRHIGDFVDSDIKIRVVYNGKDITMRVHFHVEKINGRWLTTHIRIK
- protease stability score: 0.352

Sequence: SDEEKIARLALEILIKILLTGDEKMILDNADPDVRLEVNGRQIHGMEWLSKIMTEWRFRDTHVRSVRNINGVVHVDGEQDVNYNGREETVHTHYIIEKVNGVWFLKRVVLH
- protease stability score: 1.44

Sequence: SDEERDANRFIKLWVDAMTTGDWEEISLLLDPNVLLLVGDKTYHGREEFVRIMHELIERVKNIRVEIKHREVQGDKIRVDTVLRVNGRTLREHVVMEKVNGQWVIRSLEFD
- protease stability score: 2.3

Sequence: SDEERDFTRLIRILRDALRTGDEHKLHELLDPHTRIIFDGQHHIGWERILEWADQIDHVHFRMTLHTVDIQGDKLRADLSLDVKIQVDGRTEHRHNVMHITVQKVNGRWRIQELYYK
- protease stability score: 1.27

Sequence: SDEERDSRKAEEKWIRTLETGDERIITELADPNVRLEIGDKTFHGREDFYKFMTYLTRHLRVERFEIKRFDFQGEWIHMKTHINMRVGEFSHHSDTEIVAYKVNGRWVIHNVRVE
- protease stability score: 0.831

Sequence: SDEEREFDIAFHLMRHVERTGDPHDMTKMADPNVRVDINGVEVVGREQLREEMRKLGVKYSHVEDFRTFDGRVILHGTLEINGQRRNTEIYASKINGRWHVEEYRFR
- protease stability score: 1.14

Sequence: SDEEREIEHLARLFLEWWYTGDEDTIMKNADPHVRHDFNGVENIGRERVAEVVVHLIRELRIKSMHLHDIDIQGNKVDMNIELDGTYNGKRRKREMEIELVFINGRIKSSHVTIK
- protease stability score: 1.17

Sequence: SDEERHAEFVSRRILHALRTGDWEILFKMADPNVKSTIGDKHHHGWEIMSDMYKKLWEDLGVKHLDLKRITYVDGVVHIDERIRIGDKTHNVELNFVVIDGVLRSVEVHVR
- protease stability score: 1.14

Sequence: SDEERLLHELLHRVLHKRVTGDEESIWREIDPRARIDVNGRDVHGRDHFFEFIVKWMMHYGINHLEIKNQREIDGRIDVDFHEEVGDKRFHVRIIFHKINGRWHLTQEVFT
- protease stability score: 1.19

Sequence: SDEERLLKEIYRIWIRLFETGDWKEFEQMFDPNVRLIIGDKDLHGMELYSKFMRHFVEHIRFEDHQEHEIRVIGDKIHVHGREVGNVNGKRHRREIEIRLVVVNGVFKSEELRVH
- protease stability score: 1.18

Sequence: SDEERSIKILIDLYRLAQETGDERIMREYADPDMKLDIGDKRDHGWEVLVRMVRHLRFHEIHIEHFEVQGNKMHITVRIDTEVNGQRWILRAHIIVTKFNGKWRIEHREEE
- protease stability score: 1.45

Sequence: SDEETITREYIRILIKMMRTGDESTLTRLADPHVRVDINGKDLHGRESLVEEMHKLIRDLGVERIEVHFRNIHIQGEWIVIHIDLQIGDKRFEVRDIALKIDGRWVHKSIEIQ
- protease stability score: 1.33

Sequence: SDEHDVVRELLEIMEIVWRTGDWREMTKMFDPNTRISYGDKYIVGWEALEVLLKRIDHHTMHEIHFRDVHVQGDKIRLDGEVRFERHVGDYREHVTVDVHIHARKIDGRWINTNIRTH
- protease stability score: 0.743

Sequence: SDEHERLKRFAEEWIRAVITGDFDRLYELMDPHARYHQGDKNHHGRDQIRHFLHRFKNIRIDYHRIELIGDKVHMDGWINYDGKEVETKITVHVIDGRVHIIHVWEI
- protease stability score: 1.39

Sequence: SDEHEWERHLYHVLIHAVNTGDEDLVTEMMDPHVRTDINGVELHGRNELSRQLKEMGIKHLEIEHLDFVGNFLVSQVRVDVNGVDYKSEIIALKINGKWLLSELRLE
- protease stability score: 1.04

Sequence: SDEIEEVKTFVRLFTKDLETGNEEDLKRLADPNTRLDVNGREIHGWKSMEHRYRELMEKYKNLRIEVKIDDIRVQGDKIHIHTTIKLDYDGVDIELSSWLVIHKINGRWFVRSIEME
- protease stability score: 0.605

Sequence: SDEKKRLDDLAMTFLTLWMTGDWDHFARQADPHVRSDINGKELHGREIFVNFLREEMTRLGVDHFELHSVTVIDGKVHFDGEVDVNGVRHKTILWSVIFNGRIKSQEEEIR
- protease stability score: 1.15

Sequence: SDELEEALKWLEELMRLTLTGNWDRLDELVDPNAKEVINGKELHGMHFFRRVLHEIRFTHIDVQDIRLQGNYVEVDLRVEGNIDGRHVDLHTEVILLKVNGRWLHKMRILR
- protease stability score: 1.56

Sequence: SDEMEEYEDFMKRVLEALETGDFREIRHLFDPDVKIHIDGRDIVGRESYTEHVRKWREDLGFDHIHLKIHDVKLFDGQIHVDARLEIRIGDKRDSHNVEFRLHKVDGQWLVRRVHVH
- protease stability score: 1.6

Sequence: SDEQEISEFILRIWLELVLTGDEKMMKKLFDPNTRFEINGVDIHGMESIAEHLLREREEWRSHITLTDREIQGDKVRVHTILKVDINGQHLRHHTRIIIIIINGRIHSIHIRVE
- protease stability score: 0.673

Sequence: SDEQEMLTRIIEIFFHAVLTGDEETLIEMLDPHARLDVNGVTVIGMEKIWHHVEEMRFKDTKIHDIDVQGNKMKVDGRLDGQINGREHRFRTIIIIEKINGKWLVKRIIIL
- protease stability score: 2.44

Sequence: SDEQRDVKFMLDQWLRSIETGNEDEIRHLVDPNVRSDINGQTHHGRDEYVRHMVEIRVILESIELHDLRWQGDKIDVDAIVQGTIIVNGRKTRFIERVHLHSVKVNGRWEIKEYRVV
- protease stability score: 1.42

Sequence: SDETKRLEEHLKHRFRSMVTGNEEDISRLMDPNAKLIVGDKEFHGREIVLKLLLRWAHEMRLRHEEVEEIHIIGDYVRINGILHMEVGDKSIEIHTVIIILKIDGRWRDKTEHYG
- protease stability score: 0.654

Sequence: SDEYRRNHDLARDYVELFRTGNEEHLYELADPNTMLHIGEFQSHGREHVYEWLEKIHRHWGWENVEFRLESMQVQGDYATIHGLHKFNGRFIRMDHIIVVINGRMESIRVEIR
- protease stability score: 0.397

Sequence: SDFEEEMKESFRLWVHALMTGDEDLLVELVDPDVRLHVGDKDFHGREHFRRWVHEFILRADHHIIHLRDFDVQGDKLHLHTQVDIKVNGQRHHTRVRIIAIKVDGRWVLTQFDVI
- protease stability score: 2.27

Sequence: SDFEEITRKITEIITRAFFTGDWRQIERLMDPEVRNELTIGDKRIERHGRENLVHLLEEAGIDVIRIRSVEIRFFNGRLEVRIDHEVTINGVHFKTVIVVIMIKIDGRWVVHSWSFHFE
- protease stability score: 0.959

Sequence: SDHDEISHDMFRLWLELHLTGDPKVLADLFDPRVRLILEVGDKRIEVHGREEFERWYREEMRHLRIEHIHIEHVEVQGEKVHAIIEVHTHVNGRRHIHKTHITMDFIDGRFKRMKIDVK
- protease stability score: 2.14

Sequence: SDHDKRVMHIWRAVLESYLTGDEHTLKELIDPNTRFFIGDKEYHGMETFSRYARRMYEHLRFSIEVKHEDAINGRYDTHLTLHWEIGDKTDTYDTRLHLDVYDGVVKRLEIRVH
- protease stability score: 1.46

Sequence: SDHEHMILHYARHVLELWFTGDWEIFEKLADPRAKMTVNGQELHGRESVSKWMHDKKEEIRMRDLRIHHIDVQGDFVILHLRVDFEVNGQRIDTHIEIYILVVNGQLREIEIREK
- protease stability score: 0.853

Sequence: SDHRRLLEELLKIIIKAMMTGDESTLERMFDPNVRINIDGVDDHGWESFDRMFHELRIDHARVEYIDVVNGRARVHTNFEVHFDGRRIHWETEIVVVIVNGRNREVSIIRH
- protease stability score: 0.739

Sequence: SDIDELDRELMEHTLRTIRTGDEETVHRLLDPDARTLINGREYHGREWATKMMSDWNRELGIDHLEIKHVDLINGKVRIDVKITVGDKEFHMTMVYNKVNGKWINHSIHIH
- protease stability score: 0.409
